The assay has as its target Monomeric soluble human PD-1 (human, UniProt Q15116 25-170). Nature of the assay: SPR. For orientation: Surface plasmon resonance follows binding to a sensor surface in real time, without labels.

In patent publication US20110171215A1 (published 2011) one finds koff data, which are given here for 3 molecules.

Sequence of Monomeric soluble human PD-1 (Q15116 25-170): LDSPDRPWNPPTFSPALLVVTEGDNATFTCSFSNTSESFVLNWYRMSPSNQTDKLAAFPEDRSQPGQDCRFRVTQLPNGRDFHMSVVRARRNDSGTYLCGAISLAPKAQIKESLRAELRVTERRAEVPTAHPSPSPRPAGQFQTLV

B1: Clone 19 anti-PD-1 antibody (antibody, V domains shown)
VH: QVQLQQSGAELVKPGASVKMSCKAFGYTFTTYPIEWMKQNHGKSLEWIGNFHPYNDDTKYNEKFKGKAKLTVEKSSTTVYLELSRLTSDDSAVYYCARENYGSHGGFVYWGQGTLVTV
VL: ENVLTQSPAIMSASPGEKVTMTCRASSSVISSYLHWYQQKSGASPKLWIYSTSNLASGVPDRFSGSGSGTSYSLTISSVEAEDAATYYCQQYNGYPLTFGAGTKLEIK
Usually koff stands for the first-order rate constant of dissociation. A higher koff goes with fast dissociation. As for B1, the koff is ~0.0013 s⁻¹.

B2: Clone 2 anti-PD-1 antibody (antibody, V domains shown)
VH: QVQLQQPGAELVKPGASVKLSCKASGYTFTTYYLYWVRQRPGQGLEWIGGINPSNGGTNFNEKFKSKATLTVDKSSSTAYMQLNSLTSEDSAVYYCTRRDYRYDRGFDYWGQGTSVTV
VL: DIVLTQSPASLAVSLGQRATISCRASKSVSTSGFNYIHWYQQKPGQPPKLLIYLASNLESGVPARFSGSGSGTDFTLNIHPVEDEDAATYYCQHSRELPLTFGAGTKLEIK
Take B2: the koff was ~0.0027 s⁻¹.

B3: Clone 10 anti-PD-1 antibody (antibody, V domains shown)
VH: DVQLQESGPGLVKPSQSLSLTCTVTGYSITSDYAWNWIRQFPGNKLEWMGYINYSGSTSYNPSLKSRISITRDTSKNQFFLQLNSVTTEDTATYYCARWIGSSAWYFDVWGAGTTVTV
VL: DVLMTQTPLSLPVSLGDQASISCRSGQNIVHSNGNTYLEWYLQKPGQSPKLLIYKVSNRFFGVPDRISGSGSGTDFTLKISRVEAEDLGVYFCFQGSHVPFTFGSGTKLEIK
B3: the koff is ~0.4 s⁻¹.
